Test results: paper PMC11417995 (2024)

Target: ubiquitin (Homo sapiens, UniProt P0CG47)
Assay: PPI-CONA

Kd: 12.2 µM
B1: CDC34A (protein)
chain: MARPLVPSSQKALLLELKGLQEEPVEGFRVTLVDEGDLYNWEVAIFGPPNTYYEGGYFKARLKFPIDYPYSPPAFRFLTKMWHPNIYETGDVCISILHPPVDDPQSGELPSERWNPTQNVRTILLSVISLLNEPNTFSPANVDASVMYRKWKESKGKDREYTDIIRKQVLGTKVDAERDGVKVPTTLAEYCVKTKAPAPDEGSDLFYDDYYEDGEVEEEADSCFGDDEDDSGTEES
modifications: CC0651
